# Columns and labels:
# LRP6 [1] = target: T1, LRP6 (Homo sapiens, UniProt O75581); test: Cell surface Myc-DKK1 binding and immunodetection on LRP6-transduced HT1080 cells; conditions: 1 μM Mesd, immunofluorescence
# T1 construct: expressed in transfected cells; host or cells: human HT1080 cells, retroviral vector pLNCX2
# Text: Human DKK1 cDNA (clone MGC:868, IMAGE:3508222) was obtained from Invitrogen and subcloned into pcDNA3 (EcoRI/XbaI). To facilitate immunodetection, a c-Myc epitope was included at the C-terminus. The integrity of the subcloned DNA sequence was confirmed by DNA sequencing. Human DKK1-conditioned media were produced by transient transfection of HEK293 cells with pcDNADKK1-Myc in serum-free medium, and allowed to bind to LRP6-transduced HT1080 cells and control cells at room temperature for 60 minutes in the absence or presence of 1 μM Mesd. Cells were then fixed in 4% paraformaldehyde, labeled with anti-Myc monoclonal antibody and detected with Alexa-488 goat anti-mouse IgG. The immunofluorescence was detected by a laser-scanning confocal microscope (Olympus Fluoview 500).
# (§1) RAP is a receptor antagonist for members of the LDLR family, and is able to inhibit the binding of most known ligands of the LDLR family members. DKK1 is an LRP6-specific ligand and antagonist. […] In these experiments, Serum-free conditioned medium was harvested from HEK293 cells transiently transfected with cDNA for human Myc-DKK1 and allowed to bind to LRP6-transduced HT1080 cells (B,C) and control cells (A) in the absence (A,B) or presence (C) of 1 μM Mesd. Cell-surface-bound Myc-tagged DKK proteins were fixed and detected by immunofluorescence staining with anti-Myc antibody. […]
# LRP = target: T2, LRP (Homo sapiens, UniProt Q07954); test: 125I-Mesd binding to U87 cells and aortic smooth muscle cells expressing abundant LRP; conditions: 125I-Mesd 5 nM, 4 hours at 4° C.
# T2 construct: U87 cells and SMC express abundant LRP; endogenous in cells; host or cells: U87 glioblastoma cells; human aortic smooth muscle cells
# Experimental: (§2) Cells (2×10^5) were seeded into 12-well dishes 1 day prior to assay. Ligand-binding buffer (minimal Eagle's medium containing 0.6% BSA with a different concentration of radioligand, 0.6 ml/well) was added to cell monolayers, in the absence or the presence of 500 nM unlabeled RAP or 500 nM unlabeled Mesd, followed with incubation for 0-4 hours at 4° C. Thereafter, overlying buffer containing unbound ligand was removed, and cell monolayers were washed and lysed in low-SDS lysis buffer (62.5 mM Tris-HCl pH 6.8, 0.2% SDS, 10% v/glycerol) and counted.
# To determine whether Mesd binds to other members of the LDLR family, ^125I-Mesd binding analysis was performed with four groups of cells expressing different members of the LDLR family (FIG. 2). In the first experiment, HEK293 cells were transiently transfected with cDNAs for the LDLR, LRP5, LRP6 or empty pcDNA3 vector. […]
# LRP6 [2] = target: T1, LRP6; test: 125I-DKK1 binding to LRP6; conditions: 500 nM unlabeled, 125I-DKK1 5 nM, 3 hours at 4° C.
# Experimental: as §2
# as §1, with “antibody. (D) DKK1 binding to cell surface LRP6 is inhibited by Mesd. Binding of 125I-DKK1 (5 nM) to LRP6-transduced HT1080 cells or the control cells was carried out for 3 hours at 4° C. in the absence (total) or presence of 500 nM RAP or 500 nM Mesd.” for “antibody.”
# T1 sequence (O75581 20-1613): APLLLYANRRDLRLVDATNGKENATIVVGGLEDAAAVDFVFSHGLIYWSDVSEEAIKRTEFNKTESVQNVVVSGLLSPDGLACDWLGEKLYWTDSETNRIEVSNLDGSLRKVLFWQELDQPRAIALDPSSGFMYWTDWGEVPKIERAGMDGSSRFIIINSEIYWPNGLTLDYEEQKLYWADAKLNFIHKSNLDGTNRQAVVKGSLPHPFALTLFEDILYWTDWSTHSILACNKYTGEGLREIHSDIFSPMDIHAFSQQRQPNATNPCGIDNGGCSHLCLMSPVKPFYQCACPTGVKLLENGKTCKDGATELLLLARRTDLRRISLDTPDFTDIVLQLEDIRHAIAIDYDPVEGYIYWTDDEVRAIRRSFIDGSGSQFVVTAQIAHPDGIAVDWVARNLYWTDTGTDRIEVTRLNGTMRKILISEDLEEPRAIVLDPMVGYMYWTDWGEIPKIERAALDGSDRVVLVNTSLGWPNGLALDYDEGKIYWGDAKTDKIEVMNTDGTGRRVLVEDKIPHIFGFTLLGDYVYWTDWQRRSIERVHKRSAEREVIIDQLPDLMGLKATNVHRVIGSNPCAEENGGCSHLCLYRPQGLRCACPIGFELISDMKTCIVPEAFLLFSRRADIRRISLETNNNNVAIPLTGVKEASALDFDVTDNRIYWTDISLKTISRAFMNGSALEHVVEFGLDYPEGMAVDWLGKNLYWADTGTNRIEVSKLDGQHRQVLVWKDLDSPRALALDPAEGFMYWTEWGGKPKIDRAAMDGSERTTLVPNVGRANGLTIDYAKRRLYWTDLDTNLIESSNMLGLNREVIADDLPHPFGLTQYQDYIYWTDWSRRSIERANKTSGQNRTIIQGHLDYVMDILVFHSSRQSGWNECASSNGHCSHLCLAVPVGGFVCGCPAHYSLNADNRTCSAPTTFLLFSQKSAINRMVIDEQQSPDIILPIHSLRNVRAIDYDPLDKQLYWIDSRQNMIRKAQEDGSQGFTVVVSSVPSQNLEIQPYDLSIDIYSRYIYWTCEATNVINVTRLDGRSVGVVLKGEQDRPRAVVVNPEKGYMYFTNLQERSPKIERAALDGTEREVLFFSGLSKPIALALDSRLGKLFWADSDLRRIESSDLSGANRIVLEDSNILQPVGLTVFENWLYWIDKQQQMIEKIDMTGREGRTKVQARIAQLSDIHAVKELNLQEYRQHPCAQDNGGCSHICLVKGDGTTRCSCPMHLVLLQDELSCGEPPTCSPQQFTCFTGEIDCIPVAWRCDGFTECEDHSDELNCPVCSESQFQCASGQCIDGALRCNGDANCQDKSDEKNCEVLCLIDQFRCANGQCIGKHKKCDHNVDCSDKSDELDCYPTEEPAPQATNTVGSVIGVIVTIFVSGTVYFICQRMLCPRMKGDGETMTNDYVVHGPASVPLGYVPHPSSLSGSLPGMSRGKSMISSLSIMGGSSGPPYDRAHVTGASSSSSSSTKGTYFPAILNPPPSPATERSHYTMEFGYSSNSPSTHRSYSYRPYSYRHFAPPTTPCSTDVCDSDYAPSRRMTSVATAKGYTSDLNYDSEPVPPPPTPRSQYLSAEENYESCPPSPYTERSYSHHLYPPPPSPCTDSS
molecule,measurement,setting,value
"Mesd: Recombinant full-length mouse Mesd expressed in E. coli, N-terminal polyhistidine tail, lacking the signal peptide (protein, left off: small tags and cut ends, Recombinant full-length mouse Mesd expressed in E. coli, N-terminal polyhistidine tail, lacking the signal peptide) ADTPGEATPPPRKKKDIRDYNDADMARLLEQWEKDDDIEEGDLPEHKRPSAPIDFSKLDPGKPESILKMTKKGKTLMMFVTVSGNPTEKETEEITSLWQGSLFNANYDVQRFIVGSDRAIFMLRDGSYAWEIKDFLVSQDRCAEVTLEGQMYPGKGGGSKEKNKTKPEKAKKKEGDRKPRASKEDNRAGSRREDL",Binding of Myc-DKK1 to LRP6 at the cell surface,LRP6 [1],completely blocked
same,Specific Mesd binding to U87 or SMC,LRP,minimal
same,Effect on increased 125I-DKK1 binding of LRP6-expressing HT1080 cells,LRP6 [2],abolished
